Paper PMC11009304

Tests used:
[1] = molecular target: hPIV3 L–P polymerase complex (L–P4) (human parainfluenza virus type 3 (hPIV3)) (UniProt P12577); experiment: SEC-MALS; purified L–P complex on an XBridge Protein BEH SEC column (200 Å) with a DAWN MALS detector, 0.5 ml/min, buffer B; bovine serum albumin as control
[2] = molecular target: hPIV3 L–P polymerase complex (L–P4) (human parainfluenza virus type 3 (hPIV3)) (UniProt P12577); experiment: SEC; analytical SEC of the purified L–P complex, Superdex 200 Increase 5/150 GL, buffer B (20 mM Tris-HCl pH 7.5, 300 mM NaCl, 1% glycerol, 6 mM MgSO4, 1 mM DTT), calibrated with standard markers
[3] = molecular target: human parainfluenza virus type 3 (hPIV3) phosphoprotein (P) (human parainfluenza virus type 3 (hPIV3)) (UniProt P06162); experiment: cryo-EM structure

| Substance | stoichiometry N [1] | stoichiometry N [2] | stoichiometry N [3] |
| --- | --- | --- | --- |
| hPIV3 L–P polymerase complex (L–P4) (from UniProt P12577;P06162) | 2 | 2 |  |
| human parainfluenza virus type 3 (hPIV3) phosphoprotein (P) (from UniProt P06162 1-604) (natural protein) |  |  | 4 |
